According to patent US20250144172A1, “ANTI-FIBROTIC SIALIDASE INHIBITOR COMPOUNDS AND METHODS OF USE” (The Texas A&M University System, priority 2016, published 2025):

B1: NEU3: recombinant human sialidase NEU3 (TP316537, Origene) (protein, UniProt Q9UQ49 1-428, looked up)
Sialidase-3: MEEVTTCSFNSPLFRQEDDRGITYRIPALLYIPPTHTFLAFAEKRSTRRDEDALHLVLRRGLRIGQLVQWGPLKPLMEATLPGHRTMNPCPVWEQKSGCVFLFFICVRGHVTERQQIVSGRNAARLCFIYSQDAGCSWSEVRDLTEEVIGSELKHWATFAVGPGHGIQLQSGRLVIPAYTYYIPSWFFCFQLPCKTRPHSLMIYSDDLGVTWHHGRLIRPMVTVECEVAEVTGRAGHPVLYCSARTPNRCRAEALSTDHGEGFQRLALSRQLCEPPHGCQGSVVSFRPLEIPHRCQDSSSKDAPTIQQSSPGSSLRLEEEAGTPSESWLLYSHPTSRKQRVDLGIYLNQTPLEAACWSRPWILHCGPCGYSDLAALEEEGLFGCLFECGTKQECEQIAFRLFTHREILSHLQGDCTSPGRNPSQFKSN
B2: NEU2: recombinant human NEU2 (sialidase 2), human neuraminidase 2 (protein, UniProt Q9Y3R4 1-380, looked up)
Sialidase-2: MASLPVLQKESVFQSGAHAYRIPALLYLPGQQSLLAFAEQRASKKDEHAELIVLRRGDYDAPTHQVQWQAQEVVAQARLDGHRSMNPCPLYDAQTGTLFLFFIAIPGQVTEQQQLQTRANVTRLCQVTSTDHGRTWSSPRDLTDAAIGPAYREWSTFAVGPGHCLQLHDRARSLVVPAYAYRKLHPIQRPIPSAFCFLSHDHGRTWARGHFVAQDTLECQVAEVETGEQRVVTLNARSHLRARVQAQSTNDGLDFQESQLVKKLVEPPPQGCQGSVISFPSPRSGPGSPAQWLLYTHPTHSWQRADLGAYLNPRPPAPEAWSEPVLLAKGSCAYSDLQSMGTGPDGSPLFGCLYEANDYEEIVFLMFTLKQAFPAEYLPQ
B3: NEU4: recombinant human NEU4 (sialidase 4), human neuraminidase 4 (protein, UniProt Q8WWR8 1-484, looked up)
Sialidase-4: MGVPRTPSRTVLFERERTGLTYRVPSLLPVPPGPTLLAFVEQRLSPDDSHAHRLVLRRGTLAGGSVRWGALHVLGTAALAEHRSMNPCPVHDAGTGTVFLFFIAVLGHTPEAVQIATGRNAARLCCVASRDAGLSWGSARDLTEEAIGGAVQDWATFAVGPGHGVQLPSGRLLVPAYTYRVDRRECFGKICRTSPHSFAFYSDDHGRTWRCGGLVPNLRSGECQLAAVDGGQAGSFLYCNARSPLGSRVQALSTDEGTSFLPAERVASLPETAWGCQGSIVGFPAPAPNRPRDDSWSVGPGSPLQPPLLGPGVHEPPEEAAVDPRGGQVPGGPFSRLQPRGDGPRQPGPRPGVSGDVGSWTLALPMPFAAPPQSPTWLLYSHPVGRRARLHMGIRLSQSPLDPRSWTEPWVIYEGPSGYSDLASIGPAPEGGLVFACLYESGARTSYDEISFCTFSLREVLENVPASPKPPNLGDKPRGCCWPS

Experiments:
[1] = recombinant human sialidase activity, 4MU-NANA cleavage at pH 6.4 and 7.0; format: biochemical
Method: In general, sialidase activity, including human sialidase activity, may be assessed at 37° C. in the presence of buffers ranging in pH from 3.7 to 7.4. Buffers with pH 3.7, 4.0, 4.6, 5.2 and 5.6 are 100 mM sodium acetate buffers. Buffers with pH 5.8, 6.4, 7.0 and 8.0 are based on Phosphate-Buffered Saline (PBS), with addition of 12 N HCl or 1 M NaOH to adjust the pH. Bovine serum albumin (BSA) is added to the buffer at a concentration of 100 ug/ml. Sialidase at a final concentration of 300 ng/ml is then added to the buffer. A sialidase inhibitor is then added to the mixture at a series of final concentrations. The reaction mixture is incubated for 30 minutes to allow the inhibitor to bind the sialidase. The fluorometric substrate 4MU-NANA [2′-(4-Methylumbelliferyl)-α-D-N-acetylneuraminic acid sodium salt hydrate is then added at a final concentration of 200 μM. Control reactions have no added inhibitor. The total volume of each reaction mixture is 0.1 ml. The cleavage of 4MU-NANA is then monitored by fluorescence every 20 minutes for 5 hours with excitation light at 360 nm and the fluorescence emission at 460 nm.
The fluorescence in the absence of sialidases is subtracted from all readings. The fluorescence of known concentrations of 4-methylumbelliferone is used to convert fluorescence to moles of product.
To determine if sialidases have enzymatic activity at the pH of the extracellular environment, sialidases may be assayed at pH 7.0, approximately corresponding to an extracellular pH in a normal tissue, at pH 6.4, approximately corresponding to an extracellular pH in a fibrotic tissue, or both.
In an example assay, recombinant human sialidases were assayed at pH 6.4, approximately corresponding to the extracellular pH that might occur in a fibrotic tissue, and at pH 7.0, approximately corresponding to a normal extracellular pH.

[2] = tested on: human PBMC; assay: IL-6 ELISA of supernatants of human PBMC cultured with NEU3; format: cell-based; details: presence or absence of serum; two or five days
Method: To determine the effects of NEU3 on IL-6 production in human PBMC, human peripheral blood was collected from healthy volunteers who gave written consent and with specific approval from the Texas A&M University human subjects review board. PBMC were isolated from the blood using Ficoll-Paque density gradient centrifugation (GE Healthcare, Cincinnati, OH) following the manufacture's protocol. PBMCs were cultured at 10^5 cells/ml in each well of 96-well flat bottom tissue culture plates (VWR, Radnor, PA) with RPMI-1640 (VWR) supplemented with 10% bovine calf serum (BCS) (VWR), 100 U/ml penicillin, 100 μg/ml streptomycin, (VWR) and 2 mM glutamine (VWR) in a final volume of 200 μl per well. Cells were also cultured at 10^5 cells/ml in serum-free medium as described previously in Pilling, D., Vakil, V. & Gomer, R. H. Improved serum-free culture conditions for the differentiation of human and murine fibrocytes. […]
The culture supernatants were collected after two or five days and assayed using an IL-6 ELISA kit (BioLegend, San Diego, CA) following the manufacturer's protocol, reading absorbance with a SynergyMX plate reader (BioTek, Winooski, VT). Statistics were analyzed using Prism software (Graphpad, La Jolla, CA).

[3] = tested on: human PBMC; assay: fibrocyte formation in human PBMC, serum-free medium; format: cell-based; details: 5 days; for ability of SAP to inhibit fibrocyte formation: 100 ng/ml sialidase with 1 μg/ml SAP; for fibrocyte formation / differentiation: 100 ng/ml sialidase, 10 μg/ml DANA or 1 μg/ml SAP
Method: Human peripheral blood was collected from healthy adult volunteers who gave written consent and with specific approval from the Texas A&M University human subjects Institutional Review Board. Peripheral blood mononuclear cells (PBMC) were isolated from blood using Ficoll-Paque Plus (GE Healthcare Biosciences, Piscataway, NJ). Human PBMC were incubated in serum-free medium (FibroLife basal media (LM-0001, Lifeline Cell Technology, Walkersville, MD), supplemented with 10 mM HEPES (Sigma-Aldrich, St. Louis, MO), 1x non-essential amino acids (Sigma-Aldrich), 1 mM sodium pyruvate (Sigma-Aldrich), 2 mM glutamine (Invitrogen, Carlsbad, CA), 100 U/ml penicillin, 100 μg/ml streptomycin (Sigma-Aldrich), and 1x ITS-3 (Sigma-Aldrich) in the presence of absence of 100 ng/ml recombinant human sialidases (Origene, Rockville MD), 10 μg/ml DANA (Calbiochem, San Diego, CA), or 1 μg/ml human SAP (Calbiochem). After 5 days, fibrocytes were counted, and results are presented in FIG. 5.

[4] = tested on: human PBMC; assay: TGF-β1 accumulation by human PBMC (antibody staining and ELISA); format: cell-based; details: recombinant sialidase 200 ng/ml; five days
Method: To determine if sialidases might cause cells to accumulate intracellular and extracellular TGF-β1, human PBMC were cultured with sialidases in 96 well plates at 5×10^5 cells/ml and 200 μl/well in FibroLife serum-free medium for five days, then air dried. The levels of TGF-β1 in or on the cells was detected by staining with an antibody against TGF-β1. Photomicrographs were analyzed by counting stained cells (FIG. 7B) and quantifying staining intensity using ImageJ (FIG. 7C).
PBMC were cultured in 96 well plates at 5×10^5 cells/ml and 200 μl/well in FibroLife serum-free medium. When the cells were plated, recombinant human sialidases were added to final concentrations of 200 ng/ml, and DANA or oseltamivir were added to 3 μM. After 5 days, culture supernatants were analyzed using a TGF-β1 ELISA kit (R&D Systems).

[5] = tested on: human PBMC; assay: sialidase staining of human PBMC cultured with recombinant sialidases; format: cell-based
Description: In a similar experiment, cells were stained for NEU1, NEU2, NEU3, or NEU4 using antibodies.

Row | Molecule | Sialidase activity ([1]; pH 6.4) [μmole/min/mg protein] | Sialidase activity ([1]; pH 7.0) [μmole/min/mg protein] | extracellular accumulation of IL-6 [2] | ability of SAP to inhibit fibrocyte formation [3] | accumulation of TGF-β1 [4] | fibrocyte formation / differentiation [3] | levels of NEU3 in PBMC [5]
1 | B1 | 15.2 ± 1.0 | 8.3 ± 1.2 | significantly upregulated | partially counteracted | increased both cell-associated and extracellular TGF-β1 | – | –
2 | B2 | 16.4 ± 1.2 | 8.9 ± 1.2 | – | partially counteracted | increased both cell-associated and extracellular TGF-β1 | potentiated fibrocyte formation | upregulate levels of NEU3
3 | B3 | 3.8 ± 0.8 | 2.6 ± 0.9 | – | partially counteracted | no significant effect | potentiated fibrocyte formation | –
